Test results reported in article PMC12000511, “Molecular basis for the assembly of the Vps5-Vps17 SNX-BAR proteins with Retromer” (Nature Communications, 2025).
Where no end group is shown, it is not given here.

Experiments:
[1] = target: ctRetromer (Chaetomium thermophilum Retromer trimer of ctVps35, ctVps26 and ctVps29) (Chaetomium thermophilum); experiment: ITC; Microcal PEAQ ITC, 25 °C, 50 mM Tris-HCl pH 7.5, 200 mM NaCl, 2 mM β-ME; Vps5/Vps17/SNX1 construct or peptide (200-400 µM) titrated into 10-15 µM Retromer or Vps29; single-site model, N set to 1.0 if close to 1
[2] = target: ctVps29 (Chaetomium thermophilum); experiment: as above
[3] = target: T1, hRetromer (Homo sapiens, UniProt Q96QK1+Q9UBQ0); experiment: GST pull-down with hRetromer; format: binding; details: 1 nmol GST-tagged protein, 2 nmol hRetromer, overnight 4 °C, SDS-PAGE/blot
T1 construct: GST (N); made in house; host or cells: E. coli BL21(DE3) (general statement for bacterial constructs)
Experimental: GST pull-down assay of scVps5 and hRetromer was performed similar to the one described above with some modifications. The purified hRetromer at 2 nmol was mixed with 1 nmol GST-tagged hFam21R19–R21, scVps5_70–128 LF native, scVps5_70–128 LF mutant or GST alone separately overnight at 4 °C before added to fresh glutathione Sepharose pre-equilibrated with buffer as mentioned above. In all cases, beads were washed five times with the equilibration buffer and bounds proteins were analysed by SDS-PAGE gels.

[4] = target: ctVps5 (full length, homodimer) (Chaetomium thermophilum); experiment: mass photometry; Refeyn OneMP, low ionic strength: 50 mM Tris-HCl pH 7.5, 40 mM NaCl, 2 mM β-ME
[5] = target: ctVps5 (full length, homodimer) (Chaetomium thermophilum); experiment: mass photometry; Refeyn OneMP, 50-100 nM protein, 50 mM Tris-HCl pH 7.5, 200 mM NaCl, 2 mM β-ME; ctRetromer and ctVps5 combined in a 1:1 ratio
[6] = target: ctRetromer (Chaetomium thermophilum Retromer trimer of ctVps35, ctVps26 and ctVps29) (Chaetomium thermophilum); experiment: ITC; as a1, with 100 µM of the control cyclic peptide RT-D1 L7E in the cell: 200 µM ctVps5 titrated into 10 µM ctRetromer
[7] = target: ctRetromer (Chaetomium thermophilum Retromer trimer of ctVps35, ctVps26 and ctVps29) (Chaetomium thermophilum); experiment: ITC; as a1, with 100 µM of the cyclic peptide RT-D3 in the cell: 200 µM ctVps5 or GST-ctVps5(51–100) titrated into 10 µM ctRetromer or ctVps29
[8] = system: scRetromer and scSNX-BAR on supported membrane tubes; experiment: Supported membrane tube (SMT) assay; format: biochemical, Saccharomyces cerevisiae
Experimental: Supported membrane tubes were generated as described[46]. Briefly, glass coverslips were first washed with 3 M NaOH for 5 min and rinsed with water before a 60 min treatment with piranha solution (95% H2SO4/30% H2O2 3:2 v/v). Coverslips were rinsed with water and dried on a heat block at 90 °C. Coverslips were then silanized with 3-glycidyloxypropyltrimethoxysilane (Catalogue no. 440167, Sigma) for 5 h under vacuum, rinsed with acetone and dried. Polyethylene glycol coating was done by placing the coverslips in a beaker containing PEG400 (Sigma) at 90 °C for 60 h. Coverslips were washed with distilled water and stored for up to 2 months at room temperature in a closed container.
To generate supported membrane tubes, lipids were mixed from 10 mg/mL stocks in a glass vial and diluted to a final concentration of 1 mg/mL in chloroform. The same lipid mix was used throughout this study (5% PI(3)P, 15% DOPS, 0.1% fluorescent lipid tracer (Cy5.5 PE or Texas red DHPE), 79.5% egg-PC). Lipids were then spotted (typically 1 µL, corresponding to about 1 nmol) on the coverslips and dried for 30 min under vacuum. The coverslip was mounted on an IBIDI 6-channel µ-slide (µ-Slide VI 0.4. IBIDI, catalog no: 80606). Lipids were hydrated for 15 min with buffer (PBS) and SMTs were generated by injecting PBS into the chamber using an Aladdin Single-Syringe Pump (World Precision Instruments, model n°. AL-1000) at a flow rate of 1,5 mL/min for 5 min. SMTs were left to stabilize without flow for 5 min before the start of the experiment. Protein stocks (typically 1–2 µM) were first diluted in PBS and then injected in the chamber at a flow rate of 80 µL per minute. Cyclic peptides were added to the proteins from a 30 mM stock in DMSO to a final concentration of 300 µM. the protein/peptide mix was incubated for 1 min at room temp (23 °C) before being added to the SMTubes.

[9] = system: Vps10; experiment: Vps10-mNeonGreen localisation/recycling in vps5Δ yeast (Pearson colocalization with vacuole); format: cell-based, Saccharomyces cerevisiae; details: vps5Δ cells complemented with Vps5 variant on plasmid; confocal microscopy
Description: Fig. 7 The interaction of Retromer with the Vps5 N-terminal domain is required for Vps10 recycling. A AlphaFold2 predicted structure of the scVps35–scVps29–scVps5 complex highlighting residues targeted for mutagenesis. B Yeast cells (SEY6210) carrying a Vps5 deletion, and expressing a copy of Vam10 (the VAM10 gene is embedded in VPS5 and deleted with it) and Vps10-mNeonGreen were complemented with centromeric plasmids expressing variants of Vps5. These cells were logarithmically grown in SD-URA medium, stained with FM4−64 and analysed by confocal microscopy. Single slices of the images are shown. Scale bar: 1 μm. Arrowheads indicate regions of Vps10 vacuolar localisation, and open arrowheads indicate Vps10 localised to pre-vacuolar comparmtnets. C Graph representation showing the Pearson Colocalizastion Coefficient between the vacuolar and Vps10 signals of Vps5 deleted yeast cells shown in B quantified using JACoP (Just Another Co-localization Plugin) implemented in ImageJ. Error bars are the standard deviations calculated from ≥ 70 measurements from 2 experiments.
The Saccharomyces cerevisiae strains are derived from SEY6210 (Supplementary Table 3). Vps5 and Pep4 deletions, Vps5 N-terminal point mutations and endogenous tagging of Vps10 was conducted based on the CRISPR-Cas9 system. The vector co-expressing single guide RNA and Cas9 enzyme was co-transformed into yeast cells with double-stranded oligonucleotides as the templates for homologous recombination (Supplementary Table 4). For Vps5 deletion, the template contained 40-bp homology upstream and downstream of its coding sequence. Vps10^mNeonGreen was created by a template comprising its C-terminal region with mutated PAM sequence and fused mNeonGreen tag followed by 40-bp homology region after the stop codon. Vam10 was cloned into pRS305 vector using Not1/Sma1 restriction sites to generate an integrative plasmid that was linearized, transformed and integrated ectopically into the auxotrophic selectable marker LEU2 gene locus. […]

[10] = system: yeast vps5Δ cells (SEY6210); experiment: Vacuole fragmentation (FM4−64) in vps5Δ yeast; format: cell-based, Saccharomyces cerevisiae; details: vps5Δ cells complemented with Vps5 variant on plasmid
Experimental: The Saccharomyces cerevisiae strains are derived from SEY6210 (Supplementary Table 3). Vps5 and Pep4 deletions, Vps5 N-terminal point mutations and endogenous tagging of Vps10 was conducted based on the CRISPR-Cas9 system. The vector co-expressing single guide RNA and Cas9 enzyme was co-transformed into yeast cells with double-stranded oligonucleotides as the templates for homologous recombination (Supplementary Table 4). For Vps5 deletion, the template contained 40-bp homology upstream and downstream of its coding sequence. Vps10^mNeonGreen was created by a template comprising its C-terminal region with mutated PAM sequence and fused mNeonGreen tag followed by 40-bp homology region after the stop codon. Vam10 was cloned into pRS305 vector using Not1/Sma1 restriction sites to generate an integrative plasmid that was linearized, transformed and integrated ectopically into the auxotrophic selectable marker LEU2 gene locus.
The VPS5 gene with its native promoter, C-terminally fused HA-tag and ADH1 terminator was cloned into pRS314 centromeric plasmid. A point mutation was introduced in the start codon of VAM10 (M-to-I) by site-directed mutagenesis, because VAM10 overlaps with VPS5[71]. […] For the N-terminal deletion mutant of Vps5 (Δ1-280), residues 838–2025 of VPS5 were amplified and subcloned into the pRS314-VPS5-HA plasmid described above using Nco1/Sma1 restriction sites. The plasmid bearing the PL motif mutation (L196R) was generated using site-directed mutagenesis in the pRS314-VPS5-HA plasmid. To abolish all three putative binding sites to Retromer, a synthetic gene fragment of VPS5 (ordered from GenScript) containing the following mutations—start codon of VAM10 sequence(M-to-I), L196R, L121G, F122G and F161E—was subcloned into the pRS314-VPS5-HA plasmid using Nco1/Stu1 restriction sites.
Vacuoles were stained with FM4−64. Cells were grown in SD^-URA medium to an OD600 between 0.6 and 1.0. The culture was diluted to an OD600 of 0.4, and FM4−64 was added to a final concentration of 10 µM from a 10 mM stock in DMSO. […]

“GST-ctVps5_(51–100) (domain or fragment)” showed a Kd [1] of 660 nM, a dH [1] of -4.1 kcal/mol and a Kd [2] of 1600 nM. It also gave a dH [2] of -2.16 kcal/mol.

With “GST-tagged scVps5_70–128: GST-tagged S. cerevisiae Vps5 residues 70–128 containing the LF motif (GLSVAGNPQLEEHDNSKADDLINSLAPEQDPIADLKNSTTQFIATRESGGALFTGNANS; not fully specified (N-terminus); also: GST fusion, end not given here)” the “binding to hRetromer in GST pull-down” value [3] was “only binds weakly to VPS35” and the “binding to hRetromer in GST pull-down” value ([3]; listed as GST- scVps570-128) was “binds weakly to hRetromer”.

Molecule “ctRetromer (Chaetomium thermophilum Retromer trimer of ctVps35, ctVps26 and ctVps29) (complex)” has a stoichiometry N (ctRetromer per ctVps5 dimer) [4] of 2 and a stoichiometry N (ctRetromer per ctVps5 dimer) [5] of 1.

Molecule “ctVps5 (full length, homodimer) (natural protein)” has a Kd with 100 µM RT-D1 L7E (control peptide) present [6] of 750 nM, a dH [6] of -7.53 kcal/mol and a Kd with 100 µM RT-D3 (competitor) present [7] of 9410 nM. It also gave a dH [7] of -10.5 kcal/mol, a stoichiometry N [5] of 2 and a Kd [1] of 720 nM. It also gave a dH [1] of -8.5 kcal/mol.

B1: quadruple mutant Vps5 (L121G/F122G/F161E/L196R): scVps5 mutant altering PL, [K/R]Φ and LFa sites (protein, UniProt Q92331 1-675, looked up, variant L121G F122G F161E L196R)
Vacuolar protein …: MDYEDNLEAPVWDELNHEGDKTQSLVSNSIESIGQISTNEERKDNELLETTASFADKIDLDSAPEWKDPGLSVAGNPQLEEHDNSKADDLINSLAPEQDPIADLKNSTTQFIATRESGGAGGTGNANSPLVFDDTIYDANTSPNTSKSISGRRSGKPRILEDSARAQRNSKRNHSLKAKRTTASDDTIKTPFTDPRKKAEKENEFVEEPLDDRNERRENNEGKFTASVEKNILEQVDRPLYNLPQTGANISSPAEVEENSEKFGKTKIGSKVPPTEKAVAFKVEVKDPVKVGELTSIHVEYTVISESSLLELKYAQVSRRYRDFRWLYRQLQNNHWGKVIPPPPEKQSVGSFKENFIENRRFQMESMLKKICQDPVLQKDKDFLLFLTSDDFSSESKKRAFLTGSGAINDSNDLSEVRISEIQLLGAEDAAEVLKNGGIDAESHKGFMSISFSSLPKYNEADEFFIEKKQKIDELEDNLKKLSKSLEMVDTSRNTLAASTEEFSSMVETLASLNVSEPNSELLNNFADVHKSIKSSLERSSLQETLTMGVMLDDYIRSLASVKAIFNQRSKLGYFLVVIENDMNKKHSQLGKLGQNIHSEKFREMRKEFQTLERRYNLTKKQWQAVGDKIKDEFQGFSTDKIREFRNGMEISLEAAIESQKECIELWETFYQTNL
With B1 the “Vps5–Vps17 heterodimer formation of mutant” value ([8]; quadruple mutant Vps5 with scVps17) was “do not impair heterodimer formation”, the “coat formation / recruitment on SMTs” value ([8]; scSNX-BAR and scRetromer on SMTs containing 5% PtdIns(3)P) was “showed a defect of coat formation” and the “Vps10 recycling/localisation” value [9] was “severe Vps10 recycling sorting defect”. The “vacuole fragmentation” value [10] was “strong vacuole fragmentation”.

B2: wildtype Vps5: S. cerevisiae wildtype Vps5 re-introduced into knockout cells (protein, UniProt Q92331 1-675, looked up)
Vacuolar protein …: MDYEDNLEAPVWDELNHEGDKTQSLVSNSIESIGQISTNEERKDNELLETTASFADKIDLDSAPEWKDPGLSVAGNPQLEEHDNSKADDLINSLAPEQDPIADLKNSTTQFIATRESGGALFTGNANSPLVFDDTIYDANTSPNTSKSISGRRSGKPRILFDSARAQRNSKRNHSLKAKRTTASDDTIKTPFTDPLKKAEKENEFVEEPLDDRNERRENNEGKFTASVEKNILEQVDRPLYNLPQTGANISSPAEVEENSEKFGKTKIGSKVPPTEKAVAFKVEVKDPVKVGELTSIHVEYTVISESSLLELKYAQVSRRYRDFRWLYRQLQNNHWGKVIPPPPEKQSVGSFKENFIENRRFQMESMLKKICQDPVLQKDKDFLLFLTSDDFSSESKKRAFLTGSGAINDSNDLSEVRISEIQLLGAEDAAEVLKNGGIDAESHKGFMSISFSSLPKYNEADEFFIEKKQKIDELEDNLKKLSKSLEMVDTSRNTLAASTEEFSSMVETLASLNVSEPNSELLNNFADVHKSIKSSLERSSLQETLTMGVMLDDYIRSLASVKAIFNQRSKLGYFLVVIENDMNKKHSQLGKLGQNIHSEKFREMRKEFQTLERRYNLTKKQWQAVGDKIKDEFQGFSTDKIREFRNGMEISLEAAIESQKECIELWETFYQTNL
With B2 the “Vps10 recycling/localisation” value [9] was “localization of Vps10-mNeonGreen on punctate structures” and the “vacuole fragmentation” value [10] was “clear recovery of large vacuoles”.

B3: Vps5 (L196R): single amino acid substitution in the core PL motif of scVps5 (protein, UniProt Q92331 1-675, looked up, variant L196R)
Vacuolar protein …: MDYEDNLEAPVWDELNHEGDKTQSLVSNSIESIGQISTNEERKDNELLETTASFADKIDLDSAPEWKDPGLSVAGNPQLEEHDNSKADDLINSLAPEQDPIADLKNSTTQFIATRESGGALFTGNANSPLVFDDTIYDANTSPNTSKSISGRRSGKPRILFDSARAQRNSKRNHSLKAKRTTASDDTIKTPFTDPRKKAEKENEFVEEPLDDRNERRENNEGKFTASVEKNILEQVDRPLYNLPQTGANISSPAEVEENSEKFGKTKIGSKVPPTEKAVAFKVEVKDPVKVGELTSIHVEYTVISESSLLELKYAQVSRRYRDFRWLYRQLQNNHWGKVIPPPPEKQSVGSFKENFIENRRFQMESMLKKICQDPVLQKDKDFLLFLTSDDFSSESKKRAFLTGSGAINDSNDLSEVRISEIQLLGAEDAAEVLKNGGIDAESHKGFMSISFSSLPKYNEADEFFIEKKQKIDELEDNLKKLSKSLEMVDTSRNTLAASTEEFSSMVETLASLNVSEPNSELLNNFADVHKSIKSSLERSSLQETLTMGVMLDDYIRSLASVKAIFNQRSKLGYFLVVIENDMNKKHSQLGKLGQNIHSEKFREMRKEFQTLERRYNLTKKQWQAVGDKIKDEFQGFSTDKIREFRNGMEISLEAAIESQKECIELWETFYQTNL
With B3 the “Vps10 recycling/localisation” value [9] was “partial defect in Vps10 recycling” and the “vacuole fragmentation” value [10] was “partial rescue of vacuole fragmentation”.
